For one molecule, Kd and dH results are on record in PMC8091058, “Distinct intramolecular interactions regulate autoinhibition of vinculin binding in αT-catenin and αE-catenin” (The Journal of Biological Chemistry, 2021).

What all share (test): ITC; vinculin D1 injected into αT-catenin or αE-catenin fragment (or αT-catenin head–β-catenin complex) in the cell; 25 °C; 20 mM Hepes pH 8.0, 150 mM NaCl, 1 mM TCEP
Holding throughout (details): both partners purified
In general terms: ITC needs no label: the signal is the heat of the interaction.

Assay [1] deals with T1, αT-catenin head region (aa 1–659) (Mus musculus, UniProt Q65CL1 1-659).
T1 construct: αT-catenin, Mus musculus, head region (N- and M-domains), aa 1-659; in pGEX-TEV; also called αT-catenin head (1–659); αT-catenin N1-M3 (aa 1–659); source: E. coli BL21-Gold, purified (glutathione-agarose, TEV cleavage, Mono Q or Mono S, S200)
T1 sequence (looked up): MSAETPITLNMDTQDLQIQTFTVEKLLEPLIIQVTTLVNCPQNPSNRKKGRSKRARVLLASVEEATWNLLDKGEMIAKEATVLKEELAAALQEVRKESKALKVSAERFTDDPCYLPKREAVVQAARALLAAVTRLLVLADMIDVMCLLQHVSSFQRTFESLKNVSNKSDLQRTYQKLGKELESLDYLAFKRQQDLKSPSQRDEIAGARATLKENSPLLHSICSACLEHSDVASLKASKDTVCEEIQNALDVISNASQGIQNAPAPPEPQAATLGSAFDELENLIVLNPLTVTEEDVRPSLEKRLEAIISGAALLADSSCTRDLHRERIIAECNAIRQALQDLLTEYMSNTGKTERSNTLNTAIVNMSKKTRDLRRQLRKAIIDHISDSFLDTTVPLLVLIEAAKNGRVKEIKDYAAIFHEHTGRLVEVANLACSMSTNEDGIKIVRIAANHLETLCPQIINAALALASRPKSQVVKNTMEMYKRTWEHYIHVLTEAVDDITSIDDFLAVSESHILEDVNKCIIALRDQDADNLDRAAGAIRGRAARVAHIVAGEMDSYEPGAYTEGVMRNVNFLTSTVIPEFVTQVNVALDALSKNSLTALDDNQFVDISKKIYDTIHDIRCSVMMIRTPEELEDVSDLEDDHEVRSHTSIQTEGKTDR

For assay [2], the target named is T2, αT-catenin head (1–659)–β-catenin complex (Mus musculus, UniProt Q65CL1 1-659; Q02248 1-781).
T2 construct: αT-catenin, Mus musculus, head region, aa 1-659; β-catenin, Mus musculus, full length; also called αT-catenin head–β-catenin complex; source: E. coli BL21-Gold, purified; purified complex
T2 sequence (looked up) 1: T1 sequence (looked up)
T2 sequence (looked up) 2: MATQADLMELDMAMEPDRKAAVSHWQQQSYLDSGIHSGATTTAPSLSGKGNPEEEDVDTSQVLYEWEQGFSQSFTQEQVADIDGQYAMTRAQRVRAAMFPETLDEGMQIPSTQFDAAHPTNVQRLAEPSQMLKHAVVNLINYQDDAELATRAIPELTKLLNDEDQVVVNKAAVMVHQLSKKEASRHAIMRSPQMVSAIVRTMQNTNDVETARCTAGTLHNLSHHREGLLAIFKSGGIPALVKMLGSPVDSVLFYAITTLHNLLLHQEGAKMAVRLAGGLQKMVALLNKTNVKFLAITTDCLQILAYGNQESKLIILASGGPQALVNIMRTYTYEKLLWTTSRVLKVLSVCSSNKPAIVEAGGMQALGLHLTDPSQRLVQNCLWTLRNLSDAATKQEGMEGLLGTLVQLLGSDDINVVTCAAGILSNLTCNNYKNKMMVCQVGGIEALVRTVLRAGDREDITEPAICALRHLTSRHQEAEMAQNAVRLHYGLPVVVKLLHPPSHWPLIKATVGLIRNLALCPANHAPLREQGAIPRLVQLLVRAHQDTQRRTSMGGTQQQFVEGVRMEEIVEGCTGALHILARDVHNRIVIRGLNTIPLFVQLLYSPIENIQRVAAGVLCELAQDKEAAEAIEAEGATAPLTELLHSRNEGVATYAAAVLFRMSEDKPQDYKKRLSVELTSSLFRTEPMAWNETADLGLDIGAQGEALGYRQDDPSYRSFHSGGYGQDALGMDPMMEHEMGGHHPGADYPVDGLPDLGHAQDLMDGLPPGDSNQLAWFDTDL

Assay [3] concerns the target T3, αE-catenin M1-M2 (aa 273–510) (Mus musculus, UniProt P26231 273-510).
T3 construct: αE-catenin, Mus musculus, M1-M2, aa 273-510; in pGEX-TEV; also called αE-catenin M1-M2 (273–510); source: E. coli BL21-Gold, purified (glutathione-agarose, TEV cleavage, Mono Q or Mono S, S200)
T3 sequence (looked up): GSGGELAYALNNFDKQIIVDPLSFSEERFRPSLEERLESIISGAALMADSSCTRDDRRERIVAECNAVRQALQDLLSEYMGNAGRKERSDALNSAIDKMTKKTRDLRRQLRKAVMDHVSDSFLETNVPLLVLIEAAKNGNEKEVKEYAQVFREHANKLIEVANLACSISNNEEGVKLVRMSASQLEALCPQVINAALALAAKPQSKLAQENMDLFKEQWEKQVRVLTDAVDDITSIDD

In assay [4] the target is T4, αT-catenin M1-M3 (aa 260–626) (Mus musculus, UniProt Q65CL1 260-626).
T4 construct: αT-catenin, Mus musculus, M1-M3, aa 260-626; in pGEX-TEV; also called αT-catenin M-region; αT-catenin M1-M3 (260–626); source: E. coli BL21-Gold, purified (glutathione-agarose, TEV cleavage, Mono Q or Mono S, S200)
T4 sequence (looked up): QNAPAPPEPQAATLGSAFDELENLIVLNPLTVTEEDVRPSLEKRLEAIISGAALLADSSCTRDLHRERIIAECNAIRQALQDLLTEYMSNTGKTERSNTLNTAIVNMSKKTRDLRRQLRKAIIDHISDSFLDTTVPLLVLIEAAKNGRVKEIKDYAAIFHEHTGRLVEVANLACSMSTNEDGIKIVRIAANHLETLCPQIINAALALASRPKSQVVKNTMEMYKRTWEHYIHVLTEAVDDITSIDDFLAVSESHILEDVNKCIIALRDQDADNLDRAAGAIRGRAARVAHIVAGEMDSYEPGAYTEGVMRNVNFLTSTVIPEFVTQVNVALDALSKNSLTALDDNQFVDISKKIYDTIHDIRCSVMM

B1: vinculin D1 (aa 1–259) (domain or fragment, UniProt P12003 1-259, looked up)
chain: MPVFHTRTIESILEPVAQQISHLVIMHEEGEVDGKAIPDLTAPVSAVQAAVSNLVRVGKETVQTTEDQILKRDMPPAFIKVENACTKLVRAAQMLQADPYSVPARDYLIDGSRGILSGTSDLLLTFDEAEVRKIIRVCKGILEYLTVAEVVETMEDLVTYTKNLGPGMTKMAKMIDERQQELTHQEHRVMLVNSMNTVKELLPVLISAMKIFVTTKNTKSQGIEEALKNRNFTVEKMSAEINEIIRVLQLTSWDEDAWA
notes: vinculin D1 fragment, aa 1-259, the first 2 four-helix bundles; in pGEX-TEV; also called vinculin aa 1 to 259 (D1); vinculin N-terminus; source: E. coli BL21-Gold, purified (glutathione-agarose, TEV cleavage, Mono Q or Mono S, S200)
One may read the Kd as the concentration at which binding is half-saturated. With B1, the results for the Kd in assay [1], in assay [2] and in assay [4] were 4690 ± 2740 nM, 2770 ± 875 nM and 60.5 ± 19.2 nM, respectively. For the same molecule, the dH is 2.3 ± 1.3 kcal/mol in assay [1], 4.4 ± 0.6 kcal/mol in assay [2], 8.7 ± 0.2 kcal/mol in assay [3] and -2.2 ± 1 kcal/mol in assay [4].
